These results are taken from paper PMC10844655, “G-quadruplexes promote the motility in MAZ phase-separated condensates to activate CCND1 expression and contribute to hepatocarcinogenesis”.

The target of data set [1] is T1, MAZ WT (human, UniProt P56270 1-477).
T1 sequence: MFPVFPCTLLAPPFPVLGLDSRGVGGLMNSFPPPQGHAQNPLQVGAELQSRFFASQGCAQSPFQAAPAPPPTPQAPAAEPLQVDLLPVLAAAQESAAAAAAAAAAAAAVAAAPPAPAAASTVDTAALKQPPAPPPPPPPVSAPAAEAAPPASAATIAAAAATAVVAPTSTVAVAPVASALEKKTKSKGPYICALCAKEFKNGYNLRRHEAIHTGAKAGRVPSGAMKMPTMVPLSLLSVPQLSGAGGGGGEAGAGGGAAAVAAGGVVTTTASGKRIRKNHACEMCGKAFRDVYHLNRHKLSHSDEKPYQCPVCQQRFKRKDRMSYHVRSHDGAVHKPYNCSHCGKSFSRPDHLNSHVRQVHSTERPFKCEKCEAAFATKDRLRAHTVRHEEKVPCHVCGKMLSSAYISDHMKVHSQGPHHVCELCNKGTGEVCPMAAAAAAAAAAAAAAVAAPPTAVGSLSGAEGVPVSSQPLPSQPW
The data set can be described thus: EMSA; Binding buffer 250 mM HEPES, 500 mM KCl, 20 mM MgSO4, 10 mM DTT pH 8.0 (so in the source), on ice 30 min; G4 oligos annealed in 50 mM Tris-HCl, 50 mM KCl, 40% PEG200; 8% native PAGE (G4 gels with 100 mM KCl, 40% PEG200). To be noted: protein: recombinant, tags: His6 (also mCherry-His6 fusion), label: FAM. For orientation: In EMSA bound probe runs differently from free probe, usually more slowly.

The target in data set [2] is T1, MAZ WT. Description: EMSA; KCl-annealed; Binding buffer 250 mM HEPES, 500 mM KCl, 20 mM MgSO4, 10 mM DTT pH 8.0 (so in the source), on ice 30 min; G4 oligos annealed in 50 mM Tris-HCl, 50 mM KCl, 40% PEG200; 8% native PAGE (G4 gels with 100 mM KCl, 40% PEG200). To be noted: protein: recombinant, tags: His6 (also mCherry-His6 fusion), label: FAM.
A further data set addresses MED1-IDR (UniProt Q15648 948-1574). The data set can be described thus: EMSA; Binding buffer 250 mM HEPES, 500 mM KCl, 20 mM MgSO4, 10 mM DTT pH 8.0 (so in the source), on ice 30 min; G4 oligos annealed in 50 mM Tris-HCl, 50 mM KCl, 40% PEG200; 8% native PAGE (G4 gels with 100 mM KCl, 40% PEG200). To be noted: protein: recombinant, tags: EGFP, His6, label: FAM.
Another data set concerns the target T2, MAZ(ZF2-3) (human, UniProt P56270 279-329).
T2 sequence: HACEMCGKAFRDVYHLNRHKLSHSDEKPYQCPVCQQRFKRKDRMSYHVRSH
The data set is described as above. Conditions: protein: recombinant; tags: mCherry; His6; label: FAM; G4 parallel, intra- and/or intermolecular.

For a further data set, the target named is BRD4-IDR (UniProt O60885 674-1351). The data set is described as above. Conditions: protein: recombinant, tags: EGFP, His6, label: FAM.
The target in the next data set is T3, MAZ(ZF4) (human, UniProt P56270 337-360).
T3 chain: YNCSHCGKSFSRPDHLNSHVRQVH
The data set is described as above. To be noted: protein: recombinant; tags: mCherry; His6; label: FAM; G4 parallel, intra- and/or intermolecular.

The target of another data set is T4, MAZ(ZF3-4) (human, UniProt P56270 307-360).
T4 sequence: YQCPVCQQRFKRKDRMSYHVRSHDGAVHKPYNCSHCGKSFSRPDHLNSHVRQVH
The description is as above. To be noted: protein: recombinant; tags: mCherry; His6; label: FAM; G4 parallel, intra- and/or intermolecular.

For another data set, the target named is T5, MAZ(ZF2-4) (human, UniProt P56270 279-360).
T5 sequence: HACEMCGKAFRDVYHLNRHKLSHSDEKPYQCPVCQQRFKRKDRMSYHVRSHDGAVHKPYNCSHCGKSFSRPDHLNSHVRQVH
The description is as above. Conditions: protein: recombinant; tags: mCherry; His6; label: FAM; G4 parallel, intra- and/or intermolecular.

Data set [3] has as its target T1, MAZ WT. The data set can be described thus: competition; unlabeled WT vs FAM-WT; Binding buffer 250 mM HEPES, 500 mM KCl, 20 mM MgSO4, 10 mM DTT pH 8.0 (so in the source), on ice 30 min; G4 oligos annealed in 50 mM Tris-HCl, 50 mM KCl, 40% PEG200; 8% native PAGE (G4 gels with 100 mM KCl, 40% PEG200). To be noted: protein: recombinant; tags: His6 (also mCherry-His6 fusion); label: FAM; G4 parallel, intra- and/or intermolecular.

Where [4] appears, read: G4 parallel, intra- and/or intermolecular.

Sequence of MED1-IDR (Q15648 948-1574): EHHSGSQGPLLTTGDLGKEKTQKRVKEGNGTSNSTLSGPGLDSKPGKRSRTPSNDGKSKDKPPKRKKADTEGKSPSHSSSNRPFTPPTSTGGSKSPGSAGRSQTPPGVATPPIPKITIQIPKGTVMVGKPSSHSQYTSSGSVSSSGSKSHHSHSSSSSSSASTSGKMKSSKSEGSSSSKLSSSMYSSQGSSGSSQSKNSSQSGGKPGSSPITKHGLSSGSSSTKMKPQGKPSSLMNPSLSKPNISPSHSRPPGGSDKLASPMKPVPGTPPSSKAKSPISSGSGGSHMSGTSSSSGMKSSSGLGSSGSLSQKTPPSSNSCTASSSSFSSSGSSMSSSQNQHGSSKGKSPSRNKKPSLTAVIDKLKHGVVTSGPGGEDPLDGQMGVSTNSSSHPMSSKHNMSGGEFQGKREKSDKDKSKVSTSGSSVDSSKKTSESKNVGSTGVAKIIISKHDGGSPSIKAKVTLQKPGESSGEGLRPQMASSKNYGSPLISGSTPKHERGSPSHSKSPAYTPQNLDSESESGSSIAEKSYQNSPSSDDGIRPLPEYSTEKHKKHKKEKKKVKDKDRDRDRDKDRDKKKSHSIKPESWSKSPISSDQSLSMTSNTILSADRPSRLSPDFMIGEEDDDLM

B1: BS1 (dsDNA)
DNA 1: AGGGGGAGGGGGCG
DNA 2: CGCCCCCTCCCCCT
As for B1, the binding result with MAZ WT [1] (blunt) is “binds”.

B2: CCND1-G4 Mut2 (structured_DNA)
DNA: ATGGGAGCGAGAGGAGGGCGGGGGCGGACGCAGGAGGAGGGGGCGCGGGCG
In the case of B2, the binding result in the data set with MAZ WT [2] (intermolecular parallel G4) was “binds”.

B3: CCND1-G4 WT (structured_DNA)
DNA: ATGGGAGCGGGAGGGGGGCGGGGGCGGGCGCAGGGGGAGGGGGCGCGGGCG
In the case of B3, the binding result is “binds” with MED1-IDR (setting [4]); “no binding” with MAZ(ZF2-3); “binds” with BRD4-IDR (setting [4]); “no binding” with MAZ(ZF4); “no binding” with MAZ(ZF3-4); “binds” with MAZ(ZF2-4). For the same molecule, the binding result in the data set with MAZ WT [3] is listed as “binds”.
For the molecule GGGCGCGGGAGGAATTGGGCGGG (structured_DNA) [BCL2-G4], the binding result in the data set with MAZ WT [1] (G4 hybrid, 3 quartets) is “binds”.
On the same count and under the same terms, the entry for TAGGGTTAGGGTTAGGGTTAGGGTTAG (structured_DNA) [TEL-G4] is “binds”.
Turning to GGGGCGCGGGGCGCGGGGCATGGGG (structured_DNA) [MDM2-G4], in the data set with MAZ WT [1] (G4 antiparallel, 4 quartets), the binding result is recorded as “binds”.
Take TGAGGGTGGGTAGGGTGGGTAA (structured_DNA) [MYC-G4 (Table S2)]: the binding result in the data set with MAZ WT [1] (G4 parallel, 3 quartets) is reported as “binds”.

B4: BS2 (dsDNA)
DNA 1: AGCGGGAGGGGGGC
DNA 2: GCCCCCCTCCCGCT
As to B4, the binding result with MAZ WT [1] (blunt) is “binds”.

B5: CCND1-G4 Mut1 (ssDNA)
DNA: ATGAGAGCGAGAGAGAGACGAGAGCGAGCGCAGAGAGAGAGAGCGCGAGCG
Regarding B5, the binding result in the data set with MED1-IDR (no G4), in the data set with BRD4-IDR (no G4) and with MAZ WT [2] (no G4) was “no binding” each time.
Turning to GGAGGAGGAGGAGGAGGAGGAGGA (structured_DNA) [MYB-G4], in the data set with MAZ WT [1] (2 G4s with two quartets), the binding result is listed as “binds”.

B6: BS3 (dsDNA)
DNA 1: GGGGGGCGGGGGCG
DNA 2: CGCCCCCGCCCCCC
Regarding B6, the binding result with MAZ WT [1] (blunt) was “binds”.
